Laboratory results as given in patent US5456909A, “Glycoform fractions of recombinant soluble complement receptor 1 (sCR1) having extended half-lives in vivo” (T Cell Sciences, Inc., priority 1992, dated 1995).

How the values were obtained:
iC3 = settings: produced in presence of tunicamycin; cited from earlier work
[1] = Pharmacokinetic studies 1, 4, 5, 7, 9: iv clearance of 125I-labelled TP10HD preparations in rats; format: in vivo, Sprague-Dawley rats; settings: 1 mg/kg
Experimental: In Studies 1, 2, 4, 5, 7 and 9, Iodination was carried out by the chloramine-T procedure. Sodium phosphate buffer, 0.5M, pH 7.6, 50 μl, was added to 1 mCi of Na-^125 I (New England Nuclear, Boston, Mass.) as supplied. The sample of TP10HD, typically 100 μg in 100 μl (Study 5=69 μg; Study 7=34 μg; Study 9=91 μg), was added followed by 50 μl of a 15 mg/ml solution of freshly prepared chloramine-T. The reaction mixture was vigorously shaken for 60 seconds. Sodium metabisulfite (50 μl, 15 mg/ml) and sodium iodide (100 μl, 10 mg/ml) were successively pipetted into the reaction vial. The reaction mixture was passed onto a PD10 column (Pharmacia Fine Chemicals, Piscataway, N.J.), pre-equilibrated with phosphate buffered saline, pH 7.2-7.4, containing 0.1% bovine serum albumin (Sigma Chemical Company, St. Louis, Mo.). Ten 0.5 ml fractions were collected and 2 μl aliquots were counted directly and after combining with 100 μl of a 0.1% bovine serum albumin solution and 1 ml of 20% trichloroacetic acid. After incubation at 0° C. for 1 hour, the acid-precipitable protein associated radioactivity was collected by centrifugation for 10 minutes at 1000×g and quantitated by scintillation counting. Fractions containing >90% of the total radioactivity in the acid precipitate were pooled for further use.
Study 1: Radioiodinated TP10HD-CX was mixed with purified unlabeled TP10HD-CX to yield a dosing solution suitable for administering a 1 mg/kg total TP10HD dose containing 16-25×10^6 cpm of radiolabeled TP10HD-CX.
Study 4: Radioiodinated TP10HD-CC was mixed with purified unlabeled TP10HD-CC to yield a dosing solution suitable for administering a 1 mg/kg or a 3 mg/kg total TP10HD dose containing ~20×10^6 cpm.
Study 5: Radioiodinated TP10HD-CCW was mixed with purified unlabeled TP10HD-CCW to yield a dosing solution suitable for administering a 1 mg/kg total TP10HD dose containing ~20×10^6 cpm.
Study 7: Radiolabeled TP10HD-CCS was mixed with purified unlabeled TP10HD-CCS to yield a dosing solution suitable for administering a 1 mg/kg total TP10HD dose containing ~20×10^6 cpm.
Study 9: Radioiodinated TP10HD-CXD was mixed with purified unlabeled TP10HD-CXD to yield a dosing solution suitable for administering a 1 mg/kg total TP10HD dose containing ~20~10^6 cpm.
In Studies 1, 4, 5, 7 and 9, test material was injected intravenously (iv) into four Sprague-Dawley rats (2 male, 2 female). Blood samples were obtained from the retroorbital plexus at 1, 3, 5, 10, 20, 30, 45, and 60 minutes post injection, and the radioactivity determined. Additional post infusion blood samples were taken at 2, 3, and 4 hours postinjection (STUDY 4) and at 120 minutes (STUDY 5). The plasma fraction of the remaining blood sample was retained for further analysis.
Plasma samples were analyzed for residual test material by measuring:
(1) total residual radioactivity;
(2) percentage of radiolabeled material precipitated with TCA;
(3) residual acid precipitable radioactivity in the presence of SDS; and
(4) material immunologically identifiable in an enzyme immunoassay as TP10HD.
Radioisotope data was quantitated as total cpm/ml blood or plasma and as the percentage of a theoretical time zero value. Pharmacokinetic half-life was calculated from the radiometric data.
In Study 9, removal of N-linked oligosaccharide chains was performed by n-glycanase digestion, performed according to manufacturer's instructions (Genzyme Corporation, Boston, Mass.). Typically, 58 μg TP10HD-CX was incubated with 10.5 units of n-glycanase for 18 hours, 37° C., in 0.2M sodium phosphate, pH 8.6 buffer.
Precipitation with trichloroacetic acid was performed as follows: Plasma (20 μl) was precipitated by sequential addition of 450μl of 0.13M Tris HCl, 4% SDS, 10% glycerol, pH 6.8 buffer, followed by 30 μl of fetal bovine serum and 500μl of 20% trichloroacetic acid. […]

[2] = Pharmacokinetic study 2: iv TP10HD-CX in rabbits, residual functional activity by hemolysis inhibition; format: in vivo, Dutch rabbits; settings: for Peak (t = O) conc / Serum half-life / Total Clearance / Volume of Distribution: iv, 1 mg/kg
Experimental: Study 2: Radioiodinated TP10HD-CX, ~5% w/w, was mixed with purified TP10HD-CX to yield a dosing solution containing 1 mg/ml TP10HD-CX in 0.1M Hepes, 0.15M NaCl, pH 7.4 buffer.
In Study 2, test material was injected iv into two groups of five male Dutch rabbits (approximately 1 kg) at a dose of 1 mg/kg. Blood samples, 2 ml, were taken from an ear artery immediately pre-dosing and at 5, 10, 20, 45, 60, 120, and 180 minutes, and mixed with heparin (final concentration 25 μg/ml). Radioactivity was determined in an aliquot by scintillation counting, and the plasma, obtained by centrifugation at 2000×g for 5 minutes, was stored at -40° C.
Plasma samples were analyzed for residual test material by an in vitro functional assay, inhibition of hemolysis of antibody coated sheep red blood cells (SRBC) by human complement. Pharmacokinetic half-life was calculated from the titer of the residual functional activity.
Rabbit plasma samples were heated at 56° C. for 1 hour in the presence of methylamine (12.5 mM) in order to amidate thioester groups and to inactivate endogenous complement components C3 and C4. […] Test samples were then diluted 1:50 with 0.1 Hepes, 0.15M NaCl, pH 7.4 buffer and assayed.
(§1) SRBC presensitized with rabbit anti-SRBC antibody (Diamedix, Miami, Fla.) were mixed in a V-bottom microtiter wells (Costar, Cambridge, Mass.) with an appropriate dilution of the test plasma and an aliquot of diluted human serum as a complement source. After incubation, 37° C., 1 hour, the unlysed red cells were pelleted by centrifugation, the supernatant transferred to corresponding flat bottom microwells (Costar, Cambridge, Mass.), and absorbance at 415 nm measured. Inhibition of complement-mediated lysis of the antibody coated SRBC was measured as a reduction in the absorbance in the presence of test sample. Standard curves with known quantities of TP10HD can be used to calibrate the assay so that results can be expressed as mg/ml TP10HD remaining in the plasma versus time.

[3] = system: complement-mediated lysis of antibody coated SRBC; assay: Inhibition of complement-mediated hemolysis of antibody-sensitized SRBC in vitro; format: cell-based, human
Experimental: as §1, with “sample.” for “sample. Standard curves with known quantities of TP10HD can be used to calibrate the assay so that results can be expressed as mg/ml TP10HD remaining in the plasma versus time.”
A range of dilutions of TP10HD or TP10HD glycoform spanning 7.8 to 1000 ng/ml was examined for each sample.

[4] = Isoelectric point by chromatofocusing (Mono P, pH 7.1 to 4.0); format: physicochemical; settings: chromatofocusing
Experimental: Chromatofocusing is a method of separating isoforms of proteins according to their isoelectric point, pI, using an ion exchange column and a pH gradient created with amphoteric buffers of different pH. In this study, analysis of the TP10HD preparations was performed using a pH gradient of 7.1 to 4.0. The chromatographic resin was Mono P, Hr5/5 (Pharmacia Fine Chemicals, Piscataway, N.J.); the starting buffer was 0.025M Bis/Tris titrated to pH 7.1 with saturated iminodiacetic acid; the eluant was polybuffer 7-4 (Pharmacia Fine Chemicals, Piscataway, N.J.) diluted 1:10 (v/v) with water and adjusted to pH 4.0 with HCl; cleaning buffer was 2M NaCl in water. The experimental conditions were chosen to yield a linear pH gradient of 7.1 to 4.0 units.

[5] = in vivo
Experimental: Plasma pharmacokinetic half-lives and/or clearance rates of different glycoform preparations were determined.

[6] = system: reversed passive Arthus reaction; settings: in vivo; cited from earlier work
[7] = system: post-ischemic myocardial inflammation and necrosis; settings: in vivo; cited from earlier work
[8] = in vivo; cited from earlier work

Which “binding to iC3” value (iC3) does the source give for “non-glycosylated form of CR1: non-glycosylated form of CR1 produced in the presence of tunicamycin” here?
Its value is “reduced binding to iC3”.

With “TP10HD-CX: TP10HD produced by cells cultured in a hollow fiber bioreactor and purified by HPLC cation exchange chromatography” as the substance, how does the α phase half-life [1] read?
The α phase half-life was 4.3 min.

What about the β phase half-life [1] of the same substance?
Its β phase half-life is 167 min.

And the α phase half-life ([2]; Study 2, iv, 1 mg/kg (Table 3 summary))?
The α phase half-life was 9 to 11 min.

And the “Peak (t = O) conc” value ([2]; Group 1)?
The value was 16.5 ± 2.4 µg/mL.

What about the Serum half-life ([2]; Group 1) of the same substance?
Its Serum half-life is 9.1 ± 1.4 min.

And the “Total Clearance” value ([2]; Group 1)?
The value was 5.8 ± 1.2 mL/min/kg.

And the “Volume of Distribution” value ([2]; Group 1)?
Its value is 0.067 ± 0.009 L/kg.

And the “Peak (t = O) conc” value ([2]; Group 2)?
Its value is 23.7 ± 1.7 µg/mL.

And the Serum half-life ([2]; Group 2)?
The Serum half-life was 11.1 ± 1.2 min.

What about the “Total Clearance” value ([2]; Group 2) of the same substance?
The value was 2.9 ± 0.1 mL/min/kg.

And the “Volume of Distribution” value ([2]; Group 2)?
The value was 0.0446 ± 0.0037 L/kg.

What about the “IH50 (concentration giving 50% inhibition of hemolysis)” value ([3]; SRBC, human serum as complement source) of the same substance?
Its value is 20 ± 7 ng/mL.

What about the “average pI, in words” value [4] of the same substance?
The value was “higher average pI than TP10HD-CC”.

What about the “pI of minor isoforms” value ([4]; smaller quantities / minor component) of the same substance?
Its value is ≤ 5.0.

Which results are given for “TP10HD-CXD: TP10HD-CX enzymatically deglycosylated with n-glycanase”?
α phase half-life [1]: < 1 min; β phase half-life [1]: 6.1 min; IH50 (concentration giving 50% inhibition of hemolysis) ([3]; comparison before and after deglycosylation): 40 ng/mL; plasma half-life / clearance, in words [5]: cleared rapidly

For “sCR1/pBSCR1c: soluble CR1 construct containing LHR-A, LHR-B, LHR-C, LHR-D, SCR29, SCR30 regions up to and including the first alanine residue of the transmembrane region”, which “activity in reversed passive Arthus reaction” value [6] is on record?
The value was “demonstrated in vivo activity”.

What about the “post-ischemic myocardial inflammation and necrosis” value [7] of the same substance?
The value was “suppressed post-ischemic myocardial inflammation and necrosis”.

And the “survival rates following transplantation” value [8]?
Its value is “extended survival rates following transplantation”.
